Source: patent US6191256A, “Recombinant factor VIII binding peptides” (Bayer Corporation, priority 1998, dated 2001)

Legend:
rFVIII [1] = molecular target: T1, rFVIII (Homo sapiens, UniProt P00451); assay: confirmatory binding assay in filtration plate format using 14C-rFVIII; conditions: for Total dpm / 0.5M CaCl2 % total / 2% acetic acid % total / 2% acetic acid dpm / 0.5M CaCl2 dpm / beads % total / beads dpm: Table 4; for Total dpm / beads % total / beads dpm: 14C-rFVIII 30 nM; for 0.5M CaCl2 % total / 2% acetic acid % total / 2% acetic acid dpm / 0.5M CaCl2 dpm: 14C-rFVIII 30 nM in PPF, 5 mg beads; for 0.5M CaCl2 dpm: 5.0 × 10^15 dpm/mole, 5° C.; for beads % total / beads dpm: remaining on beads after washes
T1 sequence (P00451 20-2351): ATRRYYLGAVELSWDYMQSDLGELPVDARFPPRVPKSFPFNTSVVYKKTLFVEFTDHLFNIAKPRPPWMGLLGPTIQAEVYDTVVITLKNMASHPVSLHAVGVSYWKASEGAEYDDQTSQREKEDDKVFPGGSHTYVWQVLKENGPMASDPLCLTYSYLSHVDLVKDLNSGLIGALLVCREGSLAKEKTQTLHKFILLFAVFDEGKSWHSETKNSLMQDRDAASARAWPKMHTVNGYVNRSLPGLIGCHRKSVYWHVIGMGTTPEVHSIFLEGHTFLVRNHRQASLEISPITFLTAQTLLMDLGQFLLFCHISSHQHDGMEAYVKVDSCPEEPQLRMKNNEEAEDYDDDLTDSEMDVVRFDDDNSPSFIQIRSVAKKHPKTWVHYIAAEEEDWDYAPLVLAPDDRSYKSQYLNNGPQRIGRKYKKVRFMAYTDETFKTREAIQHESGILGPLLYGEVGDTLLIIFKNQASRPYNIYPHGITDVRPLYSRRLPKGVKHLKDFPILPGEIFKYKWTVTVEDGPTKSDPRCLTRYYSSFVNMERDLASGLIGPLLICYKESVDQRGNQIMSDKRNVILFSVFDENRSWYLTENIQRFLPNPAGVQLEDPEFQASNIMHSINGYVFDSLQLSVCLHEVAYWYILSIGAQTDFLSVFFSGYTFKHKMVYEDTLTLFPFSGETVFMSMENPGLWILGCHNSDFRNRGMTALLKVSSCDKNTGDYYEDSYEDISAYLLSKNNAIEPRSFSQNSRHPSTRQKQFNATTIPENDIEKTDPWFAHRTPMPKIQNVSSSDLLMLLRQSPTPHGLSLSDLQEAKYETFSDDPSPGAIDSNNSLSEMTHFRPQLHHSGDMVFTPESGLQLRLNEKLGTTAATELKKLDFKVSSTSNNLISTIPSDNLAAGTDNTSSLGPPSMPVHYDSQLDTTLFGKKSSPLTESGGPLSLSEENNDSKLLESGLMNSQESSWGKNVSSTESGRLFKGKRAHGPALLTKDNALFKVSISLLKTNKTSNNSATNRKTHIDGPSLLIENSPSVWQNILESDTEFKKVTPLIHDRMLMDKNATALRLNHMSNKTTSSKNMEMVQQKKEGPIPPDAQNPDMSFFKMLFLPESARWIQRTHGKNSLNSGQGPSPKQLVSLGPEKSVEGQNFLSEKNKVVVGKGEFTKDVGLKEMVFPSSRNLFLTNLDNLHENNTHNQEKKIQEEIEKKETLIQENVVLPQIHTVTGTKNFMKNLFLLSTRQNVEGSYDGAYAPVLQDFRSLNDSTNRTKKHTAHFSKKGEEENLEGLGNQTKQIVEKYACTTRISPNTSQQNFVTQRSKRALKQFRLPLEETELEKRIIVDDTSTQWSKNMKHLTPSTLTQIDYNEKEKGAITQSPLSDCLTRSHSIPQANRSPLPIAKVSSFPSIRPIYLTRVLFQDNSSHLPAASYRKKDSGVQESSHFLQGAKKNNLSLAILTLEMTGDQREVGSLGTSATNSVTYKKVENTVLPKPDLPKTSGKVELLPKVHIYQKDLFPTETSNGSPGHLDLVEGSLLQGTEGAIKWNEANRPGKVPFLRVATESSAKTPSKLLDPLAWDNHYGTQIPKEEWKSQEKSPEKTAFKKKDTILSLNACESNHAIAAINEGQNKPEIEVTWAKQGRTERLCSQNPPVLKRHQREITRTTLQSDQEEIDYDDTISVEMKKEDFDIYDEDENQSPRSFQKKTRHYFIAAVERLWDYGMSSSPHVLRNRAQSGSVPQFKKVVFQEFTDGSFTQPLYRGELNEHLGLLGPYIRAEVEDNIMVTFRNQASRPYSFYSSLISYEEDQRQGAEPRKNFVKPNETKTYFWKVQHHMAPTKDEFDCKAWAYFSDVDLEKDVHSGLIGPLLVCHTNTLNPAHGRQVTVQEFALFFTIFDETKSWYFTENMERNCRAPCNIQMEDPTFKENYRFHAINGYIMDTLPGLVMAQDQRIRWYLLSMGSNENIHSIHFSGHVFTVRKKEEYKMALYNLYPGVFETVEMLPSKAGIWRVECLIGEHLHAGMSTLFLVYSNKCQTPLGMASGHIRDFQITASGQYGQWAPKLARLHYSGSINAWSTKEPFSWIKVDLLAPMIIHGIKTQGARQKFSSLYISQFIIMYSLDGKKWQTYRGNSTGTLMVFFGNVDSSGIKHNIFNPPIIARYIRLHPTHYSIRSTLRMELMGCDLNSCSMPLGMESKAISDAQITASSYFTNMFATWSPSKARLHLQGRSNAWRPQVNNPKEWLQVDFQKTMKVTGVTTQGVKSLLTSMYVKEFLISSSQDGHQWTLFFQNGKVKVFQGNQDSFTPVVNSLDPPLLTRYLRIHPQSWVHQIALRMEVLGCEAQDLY
T1 sequence (P00451 1668-2351 limits assumed): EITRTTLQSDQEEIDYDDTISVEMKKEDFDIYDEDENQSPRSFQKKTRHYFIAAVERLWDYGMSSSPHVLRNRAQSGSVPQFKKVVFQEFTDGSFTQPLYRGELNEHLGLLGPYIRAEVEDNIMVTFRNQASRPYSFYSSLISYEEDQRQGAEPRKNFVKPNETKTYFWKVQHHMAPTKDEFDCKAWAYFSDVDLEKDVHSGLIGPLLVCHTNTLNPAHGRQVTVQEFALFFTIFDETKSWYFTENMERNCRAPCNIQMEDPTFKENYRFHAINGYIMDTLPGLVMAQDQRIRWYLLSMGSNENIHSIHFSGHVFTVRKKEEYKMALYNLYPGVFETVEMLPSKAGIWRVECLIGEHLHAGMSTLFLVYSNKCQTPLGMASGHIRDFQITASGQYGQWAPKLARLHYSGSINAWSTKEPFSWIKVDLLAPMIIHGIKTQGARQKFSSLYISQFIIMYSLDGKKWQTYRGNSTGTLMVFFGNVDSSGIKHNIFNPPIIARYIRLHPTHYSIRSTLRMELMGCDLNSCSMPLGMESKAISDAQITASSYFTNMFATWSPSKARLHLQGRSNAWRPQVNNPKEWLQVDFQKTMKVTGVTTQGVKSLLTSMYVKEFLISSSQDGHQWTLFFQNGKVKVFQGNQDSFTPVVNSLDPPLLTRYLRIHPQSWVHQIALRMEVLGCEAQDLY
Procedure, shortened: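 Peptides synthesized on TOYOPEARL AF amino 650 M resin (0.1 mmole/g) were tested in triplicate after equilibration in 20 mM imidazole, 10 mM CaCl2, 0.105 M NaCl, pH 6.9. The beads were incubated 1 hour at 5° C with 20-30 nM 14C-rFVIII in neat PPF, then washed with buffer, 0.5 M and 1.0 M CaCl2, and 2% acetic acid. Mass balance was taken from dpm of each fraction and of the beads.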

rFVIII [2] = molecular target: T1, rFVIII; assay: column format binding assay, rFVIII mass per fraction by sandwich capture ELISA for the light chain; conditions: Table 6; for Flow through ng: 10,000 ng rFVIII in 1:10 PPF injected, 5° C.
Procedure, shortened: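 Peptide resin columns (0.4×5 cm, 5 °C) loaded with 10,000 ng rFVIII in 1:10 PPF, 10 min residence time; step elution with 0.5 M and 1.0 M CaCl2 then 2% acetic acid (neutralized). Fraction rFVIII mass by light-chain sandwich ELISA; activity by chromogenic substrate; total protein by A280.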

rFVIII [3] = molecular target: T1, rFVIII; assay: rFVIII activity recovery from peptide columns by chromogenic substrate assay (COATEST); format: biochemical; conditions: Table 8; for 0.5M CaCl2 % total: activity recovery; for Flow through IU: rFVIII activity in fraction
Protocol: Immunoassay on rFVIII using a sandwich capture ELISA for the light chain and activity assay using a chromogenic substrate (COATEST Factor VIII kit from diaPharma, Franklin, Ohio) were performed on a BIOMEK® automated liquid handling system from Beckman Instruments (Brea, Calif.). The monoclonal antibody for rFVIII light chain (known as C7F7), the ELISA assay standard (lot A70K019), and the control for the activity assay (lot A70A001 @ 140 IU/mL) were from the Bayer Corporation (Berkeley, Calif.). The standard for the activity assay was at 11.2 IU/mL (Bayer, Clayton, N.C.), calibrated against the MEGA 1 standard, which is a working standard used by American manufacturers for measuring factor VIII activity (21).
Additional confirmatory binding assay and performance of the discovered binding peptides in terms of total rFVIII and activity recovery was performed in a column chromatographic format on a microbore HPLC. The resins were packed into 0.4×5 cm columns (Thomson, Springfield, Va.) and tested on the MICHROM HPLC system (Michrom BioResources, Auburn, Calif.). The elution program for the trials utilized the following method. The column was pre-equilibrated with equilibration buffer (as above). A 1 mL aliquot of 1:10 PPF followed by 1 mL of rFVIII (10,000 ng) in 1:10 PPF were injected and allowed sufficient time to flow through the column using equilibration buffer. The column was then washed with step elutions of 0.5 M and 1.0 M CaCl2 in equilibration buffer. The column was exposed to equilibration buffer. Remaining protein was eluted with 2% by volume glacial acetic acid in water. Columns were kept at 5° C. during the chromatographic runs. For each 1 mL injection (equilibration buffer, 1:10 PPF and 10,000 ng rFVIII in 1:10 PPF), the chromatographic cycle was run for 45 minutes (injection, flow through, 0.5 M CaCl2, 1.0 M CaCl2, equilibration buffer, 2% acetic acid, equilibration buffer).
A Gilson FC204 fraction collector at the HPLC outlet collected individual eluates for further analysis. Each collection tube had 100 μL hSA added to it to stabilize the rFVIII. Fractions collected from the 2% acetic acid eluates were neutralized with 2 M Tris, pH 10.5 to bring the pH to neutrality. The fractions were analyzed for total protein by the integration of the absorbance at 280 nm, for rFVIII by immunoassay (sandwich capture ELISA), and for rFVIII activity by a chromogenic substrate assay.
Tables 7 and 8 list the sequences for which activity recovery was determined by a chromogenic substrate assay (COASTEST kit, diaPharma, Franklin, Ohio). Chromatographc conditions are the same as described above for the results from Tables 5 and 6. It can be

| Substance | Total dpm (rFVIII [1]) | 0.5M CaCl2 % total (rFVIII [1]) | 2% acetic acid % total (rFVIII [1]) | 2% acetic acid dpm (rFVIII [1]) | 0.5M CaCl2 dpm (rFVIII [1]) | beads % total (rFVIII [1]) | beads dpm (rFVIII [1]) | 0.5M CaCl2 ng (rFVIII [2]) | 0.5M CaCl2 % total (rFVIII [2]) | 2% acetic acid % total (rFVIII [2]) | 2% acetic acid ng (rFVIII [2]) | Flow through % total (rFVIII [2]) | Total ng (rFVIII [2]) | Flow through ng (rFVIII [2]) | 0.5M CaCl2 IU (rFVIII [3]) | 2% acetic acid % total (rFVIII [3]) | 2% acetic acid IU (rFVIII [3]) | Flow through % total (rFVIII [3]) | Total IU (rFVIII [3]) | 0.5M CaCl2 % total (rFVIII [3]) | further results |
| --- | --- | --- | --- | --- | --- | --- | --- | --- | --- | --- | --- | --- | --- | --- | --- | --- | --- | --- | --- | --- | --- |
| 21 (HFQIFG) [compound 21] | 3484 dpm | 21% | 63% | 2208 dpm | 722 dpm | 16% | 554 dpm | 1239 ng | 22% | 60% | 3284 ng | 0% | 5510 ng | 0 ng | 11.4 IU | 19% | 4.1 IU | 0% | 21.2 IU | 53% | Flow through IU (rFVIII [3]): 0.0 IU |
| 22 (FVFLVR) [compound 22] | 4116 dpm | 16% | 19% | 783 dpm | 675 dpm | 65% | 2658 dpm | 4 ng | 0% | 100% | 4500 ng | 0% | 4504 ng | 0 ng | 0.0 IU | 100% | 2.3 IU | 0% | 2.3 IU | 0% | binding of rFVIII in words (rFVIII [1]; plate format): tight binding; Flow through IU (rFVIII [3]): 0.0 IU |
